Assay results published in patent US9969998B2, “Compositions of adenosine deaminase-2 (ADA2), variants thereof and methods of using same” (Halozyme, Inc., priority 2014, dated 2018).
Substitutions are numbered along the chain they refer to. Names may count otherwise.

B1: ADA2: wild-type human adenosine deaminase 2, mature form SEQ ID NO:5, homodimer (protein, listed as Homo sapiens)
chain: IDETRAHLLLKEKMMRLGGRLVLNTKEELANERLMTLKIAEMKEAMRTLIFPPSMHFFQAKHLIERSQVFNILRMMPKGAALHLHDIGIVTMDWLVRNVTYRPHCHICFTPRGIMQFRFAHPTPRPSEKCSKWILLEDYRKRVQNVTEFDDSLLRNFTLVTQHPEVIYTNQNVVWSKFETIFFTISGLIHYAPVFRDYVFRSMQEFYEDNVLYMEIRARLLPVYELSGEHHDEEWSVKTYQEVAQKFVETHPEFIGIKIIYSDHRSKDVAVIAESIRMAMGLRIKFPTVVAGFDLVGHEDTGHSLHDYKEALMIPAKDGVKLPYFFHAGETDWQGTSIDRNILDALMLNTTRIGHGFALSKHPAVRTYSWKKDIPIEVCPISNQVLKLVSDLRNHPVATLMATGHPMVISSDDPAMFGAKGLSYDFYEVFMGIGGMKADLRTLKQLAMNSIKYSTLLESEKNTFMEIWKKRWDKFIADVATK
modifications: ADA2 mature protein
B2: WT ADA2: wild type recombinant human adenosine deaminase 2 with FLAG tag, mature ADA2 SEQ ID NO:5 (protein, listed as Homo sapiens)
chain: B1 chain
modifications: FLAG tag; ADA2 mature protein
B3: R23E: ADA2 variant SEQ ID NO:30 (protein)
chain: B1 chain with R20E
modifications: human ADA2 R20E, mature numbering

Tests used:
[1] = adenosine deaminase activity; listed as wildtype ADA2; cited from earlier work
[2] = Spectrophotometric adenosine deaminase assay at varying pH (pH optimum); format: biochemical
Experimental: Adenosine deaminase activity of rHuADA2 and variants at varying pH were assessed to determine the pH optimum of each. The adenosine deaminase activity was determined spectrophotometrically by direct measurement of changes in adenosine absorbance. […] During the deamination reaction, the absorbance of ADO decreases while that of INO increases with time. Since the dynamic changes in absorbance make it difficult to monitor activity at a single wavelength, the relative ADO activity was determined as a ratio of the ADO peak to isobestic point (i.e. the wavelength where ADO and INO have the same extinction coefficient). The isobestic point, which is 253 nm, remains unchanged and is concentration independent, so that it is the reference point to correct for volume or intensity discrepancies.
To construct the standard curve for ADO and INO, a series of solution mixtures in 0.001% Tween-20 containing different concentrations of ADO and INO were prepared. The total concentration of ADO and INO mix was 50 μM, in 1×PBS (10 mM phosphate, 137 mM NaCl, 2.7 mM KCl), pH 7.4. The samples were scanned with the wavelengths between 220 nm and 300 nm to determine the isosbestic point, where all spectra cross.
For performing the spectrophotometric adenosine deaminase assay of ADA2 and variants, a 2× solution containing 10 mM ADO in 100 mM potassium phosphate buffer (KPB), 0.1% Tween-20 at different pHs (i.e. 5.5, 6, 6.5, 6.75, 7, 7.25, 7.4, 7.75 and 8) were prepared. A separate 2× solution containing 2 μg/mL WT rHuADA2 or variants were prepared in the same 100 mM potassium phosphate buffer (KPB), 0.1% Tween-20 at the respective pH (i.e. 5.5, 6, 6.5, 6.75, 7, 7.25, 7.4, 7.75 and 8). An equal volume of the ADO solution and the ADA2 solution (wildtype or variants) were mixed to initiate reaction. At each time point (i.e. 1, 3, 5, 7, 9, 11, 13 and 15 min), a small aliquot (4 μl) was removed and diluted 50 times by adding to 196 μl 1×PBS, pH 7.4. The diluted samples were further diluted 2 fold (in duplicates) by adding 85 μl samples to 85 μl 1×PBS in a UV-transparent half area plate. The absorbance at 253 nm and 261 nm were measured of each diluted sample.
Adenosine concentration was determined using the A261/A253 ratio and the standard curve. Adenosine deaminase activity was measured by negative change in ADO concentration per min×100.

[3] = In vivo pharmacokinetics of rHuADA2, variants and PEGylated forms (Example 9); conditions: male BALB/c mice, 7.5 mg/kg intravenous
Source text: Fifty four (54) male BALB/c mice were divided into six (6) dosing groups, and were further divided into three (3) groups each for sampling of blood at different time points. Thus, the mice were randomized into eighteen (18) groups total. Mice were weighed prior to the start of the study, and randomized into the 18 groups based upon their body weights. In each sampling group, three groups of (3) mice were used for dosing each test article to prevent oversampling of the blood from the animals. For measurement of baseline ADA2 levels, a blood sample was obtained from 12 randomly chosen mice and plasma was prepared using the anti-coagulant potassium (K3) ethylene diamine tetraacetic acid (K3-EDTA). All blood was collected by submandibular venipuncture.
Each mouse was injected by intravenous tail-vein injection with a 7.5 mg/kg dose of one of six ADA2 test article as set forth in Table 24, i.e. rHuADA2-K374D (K371D by mature numbering), PEG-rHuADA2-K374D (PEG-K371D by mature numbering), rHuADA2-R23E (R20E by mature numbering), PEG-rHuADA2-R23E (PEG-R20E by mature numbering), or WT ADA2 and PEG-WT ADA2.
Blood was collected at designated sampling time points from appropriate groups of mice as indicated below in Table 24 and kept on ice until plasma preparation. Plasma was prepared by centrifuging the blood (500×g for 5 min at 4° C.), transferring the plasma to a fresh tube and immediately freezing at −80° C. until the adenosine deaminase activity assay. Adenosine deaminase activity was determined as described in Example 4. The half-life, or time taken for the activity of ADA2 proteins to be reduced by half, was calculated. Also, total exposure was measured by calculating the Area Under the Concentration-time Curve (AUC).

[4] = Heparin binding capture ELISA (biotin-heparin on streptavidin plate); conditions: PEGylated and non-PEGylated forms (Table 22)
Experimental: Heparin binding of PEGylated rHuADA2 or variants was assessed by capture ELISA. Binding of rHuADA1 was assessed as a negative control. 100 μL of 0.2 mg/mL biotin-heparin (Sigma-Aldrich, St. Louis, Mo.; Cat No. B9806-10MG) was added to a streptavidin coated 96-well plate (Thermo Fisher Scientific, Rockford, Ill.; Cat. No. 15520), and incubated at room temperature for 1 hour. The plate was washed 6 times with PBS. Then, 150 μL of […] rHuADA2 was added to the heparin coated plate, titrated in 3× serial dilutions, and incubated at room temperature for 2 hours. The plate was then washed 6 times with PBS. A 1000× dilution of goat HRP-anti-FLAG pAb (Abcam, Cambridge, UK; Cat. No. Ab1238) was added to the ELISA plate and incubated at room temperature for 1 hour. The ELISA plate was then washed 6 times with phosphate buffered saline with Tween (PBST) and developed with the 3,3′,5,5′-Tetramethylbenzidine (TMB) substrate solution (Pierce, Thermo Fisher Scientific, Rockford, Ill.) according the manufacturer's instructions and reading the optical density at 450 nm (OD450) on a plate reader.

[5] = Heparin binding ELISA (heparin coated microtiter plate); conditions: for Average OD450, heparin binding ELISA: 3 μM protein; for Heparin Binding ELISA Average OD450: single and S265N combination variants (Table 34)
In short: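 Plates coated with 200 μg/mL heparin in Na2CO3 buffer pH 9.6 overnight at 4° C, then milk-blocked. FLAG-tagged rHuADA2 variants added at 3 μM for 2 h at room temperature. Bound protein detected with HRP-anti-FLAG and TMB, read as OD450.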

[6] = Heparin-affinity chromatography (heparin-Sepharose, SDS-PAGE); format: binding

Molecule	Adenosine deaminase activity Δ [ADO]/min × (−100) ([2]; pH 5.5)	Adenosine deaminase activity Δ [ADO]/min × (−100) ([2]; pH 6)	Adenosine deaminase activity Δ [ADO]/min × (−100) ([2]; pH 6.5)	Adenosine deaminase activity Δ [ADO]/min × (−100) ([2]; pH 6.75)	Adenosine deaminase activity Δ [ADO]/min × (−100) ([2]; pH 7)	Adenosine deaminase activity Δ [ADO]/min × (−100) ([2]; pH 7.25)	Adenosine deaminase activity Δ [ADO]/min × (−100) ([2]; pH 7.4)	Adenosine deaminase activity Δ [ADO]/min × (−100) ([2]; pH 7.75)	Adenosine deaminase activity Δ [ADO]/min × (−100) ([2]; pH 8)	Half life slow (t1/2) [3] [h]	Average OD450, heparin binding capture ELISA [4]	Average OD450, heparin binding ELISA ([5]; Set 2)	Heparin Binding ELISA Average OD450 [5]	other results
B1														pH optimum [1]: ~6.5
B2	21.11	22.06	33.77	29.76	28.70	24.47	21.77	6.65	3.58	1.15	2.31	0.55	2.31	pH optimum (highest deaminase activity) ([2]; pH 5.5 to 8, 5 mM ADO): approximately 6.5; Average OD450, heparin binding ELISA ([5]; Set 1): 0.49
B3	22.84	25.64	29.18	29.47	28.53	21.71	19.37	7.41	5.33	2.52	0.71	0.2	0.71	Percent increase in AUC compared to WT ADA2 ([3]; vs non-PEGylated WT): 19%; Percent increase in t1/2 compared to WT ADA2 ([3]; vs non-PEGylated WT): 119%; heparin binding compared to WT [6]: attenuated heparin binding; Heparin Column Binding ([6]; compared to WT rHuADA2, 0.3 mg/mL protein): Reduced; binding to heparin-coated plates compared to WT ADA2 [5]: attenuated binding to heparin
